Tests used:
[1] = target: SNAP-ACKR3 (human) (UniProt P25106)
[2] = target: SNAP-ACKR3 (human) (UniProt P25106); remark: listed apart in the source
[3] = target: CXCR4-Rluc3 (human) (UniProt P61073)
[4] = target: ACKR3-Rluc3 (human) (UniProt P25106)
[5] = target: ACKR3-Rluc3 (human) (UniProt P25106); remark: listed apart in the source

UniProt P61073, sequence (P61073 whole entry): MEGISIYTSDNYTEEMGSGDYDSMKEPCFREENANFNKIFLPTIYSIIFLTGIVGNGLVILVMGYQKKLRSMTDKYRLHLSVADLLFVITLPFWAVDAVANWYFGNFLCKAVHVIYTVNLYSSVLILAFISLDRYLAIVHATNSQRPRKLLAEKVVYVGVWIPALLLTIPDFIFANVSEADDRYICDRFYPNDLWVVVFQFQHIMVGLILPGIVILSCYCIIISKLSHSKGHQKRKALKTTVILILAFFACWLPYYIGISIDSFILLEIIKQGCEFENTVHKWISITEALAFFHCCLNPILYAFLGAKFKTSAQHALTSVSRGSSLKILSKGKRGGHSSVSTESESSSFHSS

B1: 3xHA-RAMP3 (natural protein)
chain: RAGGCNETGMLERLPLCGKAFADMMGKVDVWKWCNLSEFIVYYESFTNCTEMEANVVGCYWPNPLAQGFITGIHRQFFSNCTVDRVHLEDPPDEVLIPLIVIPVVLTVAMAGLVVWRSKRTDTLL
- attenuation of the purely ligand-induced (CXCL12) internalization of ACKR3 by RAMP3 (DERET) [1]: 50%
- reduction of total ACKR3 internalization in response to CXCL12 (100 nM) on co-expression of HA-RAMP3, compared to ACKR3 alone (DERET, AUC 90 min) [1]: 25%
- ACKR3 remaining at the surface after CXCL12-induced internalization when HA-RAMP3 was present (∼53% without it; SNAP surface labelling) [2]: 65%
- reduction of the efficacy (Emax) of CXCL12-induced β-arrestin recruitment to CXCR4 by RAMP3 (BRET) [3]: 18.5%
- decrease of the CXCL12-induced Emax of β-arrestin recruitment to ACKR3 on co-expression with RAMP3 (BRET) [4]: 40%
- decrease of the efficacy of CXCL11-induced β-arrestin recruitment to ACKR3 with HA-RAMP3 (BRET) [5]: 47%
- decrease of the efficacy of TC14012-induced β-arrestin recruitment to ACKR3 with HA-RAMP3 (BRET) [5]: 39%
- decrease of the efficacy of VUF11207-induced β-arrestin recruitment to ACKR3 with HA-RAMP3 (BRET) [5]: 30%

From publication PMC11760809
